System: MS2 coat protein
Assay: apparent KD of MS2 coat protein; designed switch direction (-1 OFF switch, 1 ON switch): -1; higher = weaker reporter binding
Method in brief: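 Normalised cluster fluorescence was curve-fitted, and each design's median over clusters is its apparent KD. Before this, SNAP-549-labelled MS2 coat protein was titrated from 0.7 or 1.5 nM, doubling to 3 µM, over RNA switches transcribed on Illumina chips by stalled E. coli RNA polymerase. Titrations had no input, 200 uM small-molecule ligand, or an oligonucleotide input, and steps lasted 0.8–1.5 h (lowest) to 10–20 min (highest).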

[1] = Eterna round: R95, input ligand: microRNA oligo, concentration not stated
[2] = Eterna round: R95, input ligand: FMN 200 uM
[3] = Eterna round: R95, input ligand: none
[4] = input ligand: microRNA oligo, concentration not stated

| Sequence | apparent KD of MS2 coat protein (input ligand: FMN 200 uM) | apparent KD of MS2 coat protein (input ligand: none) | apparent KD of MS2 coat protein [1] | apparent KD of MS2 coat protein [2] | apparent KD of MS2 coat protein [3] | apparent KD of MS2 coat protein [4] |
| --- | --- | --- | --- | --- | --- | --- |
| GUCGCGUGGGUGUGGGAGGACAUGAGGAUCACCCAUGUGACUACCAAGCUUUUUGCUCCUCUUAGGUCCAUGGGAAG [Random] (Eterna round: R97, puzzle: Sensor, turn-off variant 1) | 67 nM | 109 nM | – | – | – | – |
| UGUGCGUAUGUGAGGAUAUGCUGGUCCUUGGAUCGGCAGAAGGCACAUGAGGAUCACCCAUGUGGUGUCGUACU [salish99_Bmod_ex4_083] (puzzle: Brourd's mod of Exclusion 4) | – | – | 235 nM | – | – | – |
| CUGGUCCGAGGAUAUAUUAAGUGAAACAUGAGGAUCACCCAUGUUAUUUAAUGGAAGUAAAUAGAAGGCGGACUAG [Mat - Exclusion 5 - JL mod - D54] (puzzle: Exclusion 5) | – | – | 48.8 nM | 38.7 nM | 43.5 nM | – |
| CAGGAGUCAGGAUAUCGUUACCACGGAGUUGCUGUGCAUAACGAGAAGGGACAUGAGGAUCACCCAUGUGCCUC [Eternabot (L1) Solution 98] (Eterna round: R97, puzzle: Exclusion 4) | 57.6 nM | 22.3 nM | – | – | – | – |
| AAGGCGGUAGGAUAUACAUGAGGAUCACCCAUGUACGCGUGGAUCCCUGUGACGUCAAGUAGAAGGGCCAUAAA [Xetesobiar] (Eterna round: R97, puzzle: Exclusion 3) | 27.5 nM | 31.8 nM | – | – | – | – |
| AGCUGUGGCCGAGGAUAUCACAUGAGGAUCACCCAUGUACAUGAUUAGGCCUGGUAACAGGCUCGUGAGAAGGCGGUCUCAGCA [Eli eng2 - 010] (Eterna round: R96, puzzle: Exclusion NG 2) | 26.7 nM | 37.6 nM | – | – | – | 31.1 nM |
| GGUUGACAUGAGGAUCACCCAUGUGAGGAUAUGCGAGAGAAAAAAGUGAGGAAGAAAAGCAGAAGGCGCUGACG [salish99-ex1_r3_002] (puzzle: Exclusion 1) | – | – | 28.6 nM | 15.5 nM | 13.5 nM | – |
| GGUACUAACACGGAAGUGUUAGUACUAUAAGCUUGUGUUACAUGAGGAUCACCCAUGUCCUCAUAAGCUCGUCUUAU [Mat - Sensor v3 - Turn-off var 2 - D75] (puzzle: Sensor v3, turn-off variant 2) | – | – | 38.1 nM | 93.5 nM | 90.7 nM | – |
| CCGGAAAUGCAGGAUAUCGUAUCGGAUACGAUACGAGAAGGGUAUACAUGAGGAUCACCCAUGUGUCCUGCCGG [Fiskers Ex 6 - 54] (puzzle: Exclusion 6) | – | – | 39.8 nM | – | – | – |
| GUGUACAGAGGAUAUGCACGAGUAGUUACGAAAGUAACUACACAUGAGGAUCACCCAUGUAGAAGGCUGUACAC [Dot plot directed v1] (puzzle: Exclusion 2) | – | – | 13.3 nM | – | – | – |
| CUUUUGUGAGGAUAUUAGUAGUAAAUGAAUAAAAUUAUUACUAAGAAGGCACAUGAGGAUCACCCAUGUUCCUC [Mat - Exclusion 4 - Eli Mod - D1] (Eterna round: R97, puzzle: Exclusion 4) | 393 nM | 54.4 nM | – | – | – | – |
| UUUUAACAUGAGGAUCACCCAUGUGAGGAUAUCGUUUUUUUUUUUUUUUUUUUUUUUUCGAGAAGGCACAUUUU [My solution] (puzzle: Exclusion 1) | – | – | 84 nM | 127 nM | 14 nM | – |
| UUAUAGGCAGGAUAUACAUGAGGAUCACCCAUGUAAAUUUUUCGUUUAACUUGAAUGUGUAGAAGGGCCAUAUU [Ex3 #57] (Eterna round: R97, puzzle: Exclusion 3) | 22.3 nM | 21.6 nM | – | – | – | – |
| AACAGUCUAGAGGAUAUGUGGGAUUAAUAUCUUGCAGAAGGCUGGACAUGAGGAUCACCCAUGUAAAUACUACC [Omei Ex6 A15] (Eterna round: R97, puzzle: Exclusion 6) | 80.8 nM | 32.9 nM | – | – | – | – |
| GCACAGGCAGGAUAUACAUGAGGAUCACCCAUGUGAUCCCUUAGGUACAAAAGUACUAGUAGAAGGGCCUGUGC [Omei Ex3 Model Bachelor's Dilema v49] (Eterna round: R97, puzzle: Exclusion 3) | 403 nM | 1040 nM | – | – | – | – |
| AUUGUUGUUGUGAGGAUAUCGUUGAUUUUUUGAAACGAGAAGGCACAUGAGGAUCACCCAUGUUAGUUGUUGGU [JR_BMOE4_Sub057] (puzzle: Brourd's mod of Exclusion 4) | – | – | 77.3 nM | – | – | – |
| UAAUAUCUGAUUCUUGAGAUACAUGAGGAUCACCCAUGUUCACAGGAUAUUGAUUUUAAGAAAAGCAAGAAGGGUGAAUCAUUU [JR_ExcNG3_Sub041] (Eterna round: R96, puzzle: Exclusion NG 3) | 26.9 nM | 22.9 nM | – | – | – | 16.5 nM |

| Sequence | apparent KD of MS2 coat protein (input ligand: FMN 200 uM) | apparent KD of MS2 coat protein (input ligand: none) | apparent KD of MS2 coat protein [1] | apparent KD of MS2 coat protein [2] | apparent KD of MS2 coat protein [3] | apparent KD of MS2 coat protein [4] |
| --- | --- | --- | --- | --- | --- | --- |
| CCUCUACAUGAGGAUCACCCAUGUGAGGAUAUCCUGCGAGGAUCAAAAGAUCCUCGUGGGAGAAGGCAUAUGUA [Omei Ex1 A2] (Eterna round: R97, puzzle: Exclusion 1) | 30.6 nM | 24.8 nM | – | – | – | – |
| ACAUCCUUAGUAAGGAUAUCGUCCGCCGAGGCGGGCGAGAAGGUACAUGAGGAUCACCCAUGUAUGCAGCAGAU [Eternabot (L2) Solution 59] (Eterna round: R97, puzzle: Brourd's mod of Exclusion 4) | 19.1 nM | 14 nM | – | – | – | – |
| AUUUAAUUUAAUAAGAUCACAUGAGGAUCACCCAUGUUAUAAUAGGAUAUCAGCUCGUGUAGAGCUGAGAAGGAUUAUAACAUG [ExNG3/9-A3] (Eterna round: R96, puzzle: Exclusion NG 3) | – | – | – | – | – | 22.2 nM |
| GUCUGCACGCUGCGGUCCUACAUGAGGAUCACCCAUGUGGUCUGGUGGCGUGGGUCGCCGGACUUGGCUCGUCUUGA [salish99_S_TOV1_R5_045] (Eterna round: R97, puzzle: Sensor, turn-off variant 1) | 16.5 nM | 15.9 nM | – | – | – | – |
| CUUCAGUCAGGAUAUCUGCACGCUGGUGAGACCGGACGGAAGGAGAAGGGACAUGAGGAUCACCCAUGUAAAGC [Xesoar] (puzzle: Exclusion 4) | – | – | 15.7 nM | – | – | – |
| ACGCAUUGCCUUUGGUAGUGCGUAACAUGAGGAUCACCCAUGUAGGAUAUGGUAGGCAAAGCUUACCAGAAGGACAUAAUAAUU [Mat - Exclusion NG 3 - Mod of JL - D3] (Eterna round: R96, puzzle: Exclusion NG 3) | 73 nM | 32.7 nM | – | – | – | 31.4 nM |
| AAUUUUGGAGGAUAUACAUCCCAGGAUCCAGUAAUUAAGUUACAUGAGGAUCACCCAUGUAGAAGGUCAAGAGU [Eternabot (L1) Solution 75] (Eterna round: R97, puzzle: Exclusion 2) | 53.3 nM | 44.4 nM | – | – | – | – |
| GAAUGAGAGCAGGAUAUCUUAUAAAUGUAUGAAAGAGAAGGGCUCACAUGAGGAUCACCCAUGUGGUCCUAGAC [jl-ex6-4.72 jandersonlee mod] (Eterna round: R97, puzzle: Exclusion 6) | 309 nM | 40.1 nM | – | – | – | – |
| GUUGUUUAUGUAGGAUAUGCCUGGCGUGCCUUUGCAGAAGGACAUGAGGAUCACCCAUGUAACAUGAGGCUCACCCAUGUCGCG [salish99_ExNG1_r04_109] (Eterna round: R96, puzzle: Exclusion NG 1) | 438 nM | 277 nM | – | – | – | 185 nM |
| GGUACUCAAAGAGUACCAAUACGAACAUGAGGAUCACCCAUGUAGGAUAUGCUACUCAAAGAGUAGCAGAAGGAUAUGAUGGAU [Far Half Aptamer v15] (Eterna round: R96, puzzle: Exclusion NG 3) | 60.2 nM | 34.2 nM | – | – | – | 19.2 nM |
| AGCUGGAGAGGAUAUACGUAGGAAAAAAAAGUCUGAUCACUACAUGAGGAUCACCCAUGUAGAAGGCUCUGGCA [Ex2 Design 162: Sub-opt 26] (Eterna round: R96, puzzle: Exclusion 2) | 104 nM | 20.5 nM | – | – | – | 16.5 nM |
| ACUACUAACACGAAAGUGUUAGUACAAUAAGCUUGUGAAACAUGAGGAUCACCCAUGUCCUCAUAAGCUCGUCUUAA [salish99_TOv2_r3_012] (puzzle: Sensor v3, turn-off variant 2) | – | – | 211 nM | 14.4 nM | 13.8 nM | – |
| UACACCACAUGAGGAUCAAACAUGAGGAUCACCCAUGUAUAACAAGCUUUUUGCUCGUCUUAUAAAUAUGUGGUGUA [Electric Eye 5 - Jieux - Sensor, turn-off variant 1] (Eterna round: R97, puzzle: Sensor, turn-off variant 1) | 14.2 nM | 14.5 nM | – | – | – | – |
| GCACGGAGUGUAGGAUAUUAGUGCGAUUAGCACUGAGAAGGACAUGAGGAUCACCCAUGUUCCUCAAUAACUCACCUUCCGUGC [Eli exng1 - 043] (Eterna round: R96, puzzle: Exclusion NG 1) | 9.73 nM | 11.5 nM | – | – | – | 10.6 nM |
| AAAAUACAUGAGGAUCACCCAUGUGAGGAUAUGAGAGUCAUUUAUAUAUAUUAGAUUCUCAGAAGGCACAUAAA [JR_Ex1_Sub068] (Eterna round: R97, puzzle: Exclusion 1) | 211 nM | 53.7 nM | – | – | – | – |
| CUGUAACAUGAGGAUCACCCAUGUCAGGAUAUCUAUCAUAGCAUCGAAAGAUGCGGGUAGAGAAGGGACUAUCC [ChP Ext 10-04-2015 #8] (puzzle: Exclusion 1) | – | – | 14.5 nM | – | – | – |
| AAGAAACAUGAGGAUCACCCAUGUGAGGAUAUGAAAAAGAAAAGAAAAGAAAGAAGACUCAGAAGGCACAAAGG [salish99-ex1_r3_022] (puzzle: Exclusion 1) | – | – | 48.5 nM | 33.3 nM | 45.7 nM | – |
